Measured values reported in US20230374148A1, “BINDING MOLECULES THAT MULTIMERISE CD45” (UCB BIOPHARMA SRL, priority 2020, published 2023).
Where “and” joins values, the source holds several entries; their conditions need not be identical. Equal entries are not always repeated.

B1: 4133-6294 BYbe: anti-CD45 BYbe (Fab-scFv): 4133 Fab HC-G4S linker-6294 scFv heavy chain paired with 4133 light chain (antibody)
heavy: QEQLVESGGGLVQPEGSLTLTCTASGFSFSGNYYMCWVRQAPGKGLEWIGCLYTGSSGSTYYASWAKGRFTISKTSSTTVTLQMTSLTAADTATYFCARDLGYEIDGYGGLWGQGTLVTVSSGQPKAPSVFPLAPCCGDTPSSTVTLGCLVKGYLPEPVTVTWNSGTLTNGVRTFPSVRQSSGLYSLSSVVSVTSSSQPVTCNVAHPATNTKVDKTVAPSTCSKPGGGGSGGGGSEVQLVESGAELARPGASVKMSCKASGYTFTSYTMHWVKQRPGQCLEWIGYINPSSGYTEYNQKFKDKTTLTADKSSSTAYLQLSSLTSEDSAVYYCARVGDGFYPSWLAYWGQGTLVTVSSGGGGSGGGGSGGGGSGGGGSDIQMTQSPKFLLVSAGDRVTITCKASQSVRNDVAWYQQKPGQSPKLLIFYASKRYTGVPDRFTGSGYGTDFTFTISTVQAEDLAVYFCQQDYSSPTTFGCGTKLEIK
light: AQVLTQTPSPVSAVVGGTVSISCQASQSVYNNNNLSWYQQKPGQPPKLLIYDASKLASGVPSRFKGSGSGTQFTLTISGVQCDDAATYYCLGGYYSSGWYFAFGGGTKVVVKRTPVAPTVLIFPPAADQVATGTVTIVCVANKYFPDVTVTWEVDGTTQTTGIENSKTPQNSADCTYNLSSTLTLTSTQYNSHKEYTCKVTQGTTSVVQSFNRGDC

Legend:
Assay type in all cases: cell-based
Human whole blood = test: Cytokine release in whole blood at 24 hrs, Luminex bead assay
Experimental: Human whole blood (Lithium heparin tubes) was taken from two donors (HTA #300120-1 & #300120-2) at UCB Pharma Slough, UK according to approved ethical sample collection protocol.
In a Greiner 96-well non-binding microplate, stocks of 4133-6294 BYbe and negative control BYbe (NegCtrl BYbe), with antigen-irrelevant specificity in both the Fab and scFv positions, were prepared in PBS at 5000 nM. The BYbe reagents were then serially diluted in PBS 1 in 5, three times to produce to form a 4-point dose curve. 12.5 μl of BYbe dilution was transferred into Corning Costar 96-well, cell culture treated, U-shaped-bottom microplate (cat no. 07-200-95) and 237.5 μl of whole blood added to each well. Final well concentrations of BYbes were 250 nm, 50 nM, 10 nm and 2 nM. Campath (clinical grade, diluted from 30 mg/ml stock to 1 mg/ml in PBS, lot number F1002H29) was used as a positive control at a final concentration of 10 μg/ml. Plates were sealed with a gas permeable adhesive seal and plate lids were replaced. Plates were then incubated for 24 hrs at 37° C. and 5% humidified CO2 in an undisturbed location.
Cytokine release was then assessed using a R&D Systems Luminex 13-plex human cytokine assay (custom selection of cytokines as follows; IL-1 RA, IL-4, IL-5, IL-6, IL-10, IL-11, IL-13, CCL2, IL-8, CXCL1, CX3CL1, GM-CSF and M-CSF). Following the 24-hour incubation, plates were spun at 1000 g for 10 mins and 50 μl of plasma was transferred to a separate plate containing 50 μl of assay diluent buffer (RD6-52 from the Luminex kit). Samples were resuspended thoroughly using a multichannel pipette and 50 μl transferred to the Luminex assay plate. Luminex assay standards were diluted 1 in 2, seven times to construct standard curves and added to the plate. 50 μl of microparticle mixture was then added to each well and plates incubated for 2 hrs at room temperature (RT) and mixed at 800 rpm. Plates were washed 3 times by adding 150 μl of wash buffer to each well then allowing the magnetic beads to bind to a BioTek ELx405 microplate washer magnet before supernatant was aspirated. 50 μl of biotin-antibody cocktail was added to each well at plates incubated for 1 hr at RT with shaking. Plates were then washed as before and a final addition of 50 μl of streptavidin-PE added to each well. Plates were incubated for 30 mins at RT with shaking before a final wash step and addition of 50 μl of wash buffer to each well. The Luminex assay plate was run using the iQUEplus flow cytometer (Sartorius). Standard curves were generated (using provided assay controls) and extrapolated cytokine values generated using Forecyt software (Sartorius). Data was then transferred to Graphpad Prism version 8.1 (Graphpad) to generate data visualisations.

Ramos = test: Apoptosis of cell lines: Ramos; settings: 21 hrs
Text: (§1) The following cell lines representing various leukaemia's and lymphoma's, as classified by ATCC (www.atcc.org/), were used: Jurkat—acute T-cell leukaemia; CCRF-SB—B-cell acute lymphoblastic leukaemia; MC116—B-cell undifferentiated lymphoma; Raji, Ramos—Burkitt lymphoma (rare form of B-cell non-Hodgkin lymphoma); SU-DHL-4, SU-DHL-5, SU-DHL-8, NU-DUL-1, OCI-Ly3—Diffuse large B-cell lymphoma; THP-1—acute monocytic leukaemia; and Dakiki—B cell nasopharyngeal carcinoma.
(§2) Prior to an assay being performed, 1 vial of each of the above cell lines was thawed in a 37° C. water bath and then added to 20 ml complete media (RPMI 1640+2 mM GlutaMAX+1% Pen/Strep, all previous supplied by Invitrogen, +10% Fetal Bovine Serum (FBS), Sigma Aldrich). Cells were spun (500 g, 5 min, at RT) and re-suspended in 20 ml complete media to wash and spun again. Cells were resuspended in 10 ml complete media and then counted using a ChemoMetec NucleoCounter NC-3000. 6×10^6 cells of each cell line were spun (500 g, 5 min, at RT) and re-suspended in 4.8 ml complete media. 1×10^5 cells in 80 μl were then added to each well of a Corning Costar 96-well, cell culture treated, U-shaped-bottom microplate (cat no. 07-200-95). The plate was rested in a 37° C., 5% CO2 incubator for 2 hrs
(§3) Stocks of 4133-6294 BYbe and NegCtrl BYbe at 2500 nM in complete media were prepared. In a Greiner 96-well non-binding microplate, both reagents were serially diluted in complete media 1 in 5, seven times to produce to form an 8-point dose curve. […] (final well concentrations 500-0.0064 nM) was added to the cells. Each concentration was produced in triplicate. Camptothecin (cat no. C9911-100MG, Sigma Aldrich) and Staurosporine (cat no. 56942-200UL, Sigma Aldrich) were added as positive controls of apoptosis. Both were diluted in complete media and added to the well to produce a final concentration of 5 μM. Additional positive controls included anti-thymocyte globulin (ATG, indicated by FDA for use in conditioning regimens), Rituximab (anti-CD20, indicated by FDA for Non-Hodgkin Lymphoma and Chronic Lymphocytic Leukaemia) and Campath (anti-CD52, indicated by FDA for B-cell Chronic Lymphocytic Leukaemia). Anti-thymocyte globulin, Rituximab and Campath were added to the wells to produce final concentrations of 200 μg/ml, 500 nM and 200 μg/ml, respectively. […]
(§4) Following the incubation, the plates were spun at 500 g, 5 min, RT, the buffer was aspirated with a BioTek ELx405 microplate washer, and the cells were re-suspended in FACS buffer (PBS+1% bovine serum albumin (BSA)+0.1% NaN3+2 mM EDTA, Sigma Aldrich) to wash and then re-spun and buffer was aspirated to leave the cells in 20 μl residual media. […] Cells were analysed using the Bio-Rad ZE5 Cell Analyzer. […]

NU-DUL-1 = test: Apoptosis of cell lines: NU-DUL-1; settings: NU-DUL-1, 21 hrs
Text: as §1, §2, §3, §4

OCI-Ly3 = test: Apoptosis of cell lines: OCI-Ly3; settings: OCI-Ly3, 21 hrs
Text: as §1, §2, §3, §4

[1] = Campath 10 μg/ml, donor #300120-1

Molecule | IL-6 level induced (Human whole blood; Campath 10 μg/ml, above PBS-treated wells) | CCL2 level induced (Human whole blood; [1]) | IL-1 RA level induced (Human whole blood; [1]) | IL-8 level induced (Human whole blood; [1]) | Campath mean (%) cell reduction (Ramos; 200 μg/ml) [%] | Campath mean (%) cell reduction (NU-DUL-1; 200 μg/ml) [%] | Campath mean (%) cell reduction (OCI-Ly3; 200 μg/ml) [%] | induction of inflammatory cytokines (Human whole blood; 250-2 nM, compared with PBS- and NegCtrl BYbe-treated wells) | Bottom (%) level of % cell reduction (Ramos) [%] | Top (%) level of % cell reduction (Ramos) [%] | Bottom (%) level of % cell reduction (NU-DUL-1) [%] | Top (%) level of % cell reduction (NU-DUL-1) [%] | Bottom (%) level of % cell reduction (OCI-Ly3) [%] | Top (%) level of % cell reduction (OCI-Ly3)
Campath: anti-CD52, clinical grade, indicated by FDA for B-cell Chronic Lymphocytic Leukaemia; positive control [reference compound] | marked levels | exceeded the standard curve | exceeded the standard curve | exceeded the standard curve | 39.40 | 67.49 | 6.72 |  |  |  |  |  |  | 
B1 |  |  |  |  |  |  |  | little or no induction | 1.61 | 96.11 | 5.07 | 44.87 | 10.54 | 39.84% and 39.94%
